{
  "source": "paper PMC10465699",
  "about": "“Interaction patterns of methoprene-tolerant and germ cell-expressed Drosophila JH receptors suggest significant differences in their functioning” (Frontiers in Molecular Biosciences, 2023)",
  "binders": {"B1": {"name": "Methoprene-tolerant C-terminus (MetC, 509-716 aa) (domain or fragment, D. melanogaster, UniProt Q9VYW2 509-716, looked up)", "chain": "AGRQKVQEMKEKFSTIIKAEMPTQSSSPDLPASQAPQQLERIVLYLIENLQKSVDSAETVGGQGMESLMDDGYSSPANTLTLEELAPSPTPALALVPPAPSSVKSSISKSVSVVNVTAARKFQQEHQKQRERDREQLKERTNSTQGVIRQLSSCLSEAETASCILSPASSLSASEAPDTPDPHSNTSPPPSLHTRPSVLHRTLTSTLR", "notes": "Methoprene-tolerant (Met) protein, D. melanogaster, UniProt Q9VYW2, residues 509-716 (C-terminal fragment); 15N- or 13C,15N-labelled where it was the observed protein in NMR, unlabelled where it was added to 15N Ftz-F1 LBD; also called Met C-terminus; source: E. coli BL21(DE3), purified (Ni-NTA, on-column SUMO hydrolase digestion, SEC); not shown: His6, N-terminal, cleaved; SUMO, N-terminal, …"}, "B2": {"name": "Fushi tarazu factor-1 ligand-binding domain (Ftz-F1 LBD, 786-1027 aa) (domain or fragment, D. melanogaster, UniProt P33244 786-1027, looked up)", "chain": "ALIEPLRVSPMIREFVQSIDDREWQTQLFALLQKQTYNQVEVDLFELMCKVLDQNLFSQVDWARNTVFFKDLKVDDQMKLLQHSWSDMLVLDHLHHRIHNGLPDETQLNNGQVFNLMSLGLLGVPQLGDYFNELQNKLQDLKFDMGDYVCMKFLILLNPSVRGIVNRKTVSEGHDNVQAALLDYTLTCYPSVNDKFRGLVNILPEIHAMAVRGEDHLYTKHCAGSAPTQTLLMEMLHAKRKG", "notes": "15N- or 13C,15N-labelled where it was the observed protein in NMR, unlabelled otherwise; also called LBD Ftz-F1; source: E. coli BL21(DE3), purified (Ni-NTA, thrombin digestion, SEC); not shown: His6, N-terminal, cleaved"}, "B3": {"name": "Met^PEP, 19-residue peptide of the novel NR-box of MetC (peptide)", "peptide": "LERIVLYLIENLQKSVDSA", "notes": "19-residue peptide representing the novel NR-box in the C-terminus of Met, D. melanogaster, UniProt Q9VYW2; also called MetC^PEP; source: synthetic peptide (PSL GmbH, Heidelberg)"}},
  "conditions_in_all_cases": "both partners purified",
  "key": {"[1]": {"target": "B2", "assay": "NMR titration; 15N-HSQC of 150 uM 15N-MetC with unlabelled Ftz-F1 LBD at 0, 40, 82, 122, 199, 301 and 500 uM (cross-mixing); 20 mM Bis-Tris pH 6.5, 150 mM NaCl, 5 mM bME; 18 C"}, "[2]": {"target": "T1, Germ cell-expressed C-terminus (GceC, 661-959 aa) (D. melanogaster, UniProt Q9VXW7 661-959)", "T1 construct": "Germ cell-expressed (Gce) protein, D. melanogaster, UniProt Q9VXW7, residues 661-959 (C-terminal fragment); No step that removes the His tag is described; also called Gce C-terminus", "T1 sequence (looked up)": "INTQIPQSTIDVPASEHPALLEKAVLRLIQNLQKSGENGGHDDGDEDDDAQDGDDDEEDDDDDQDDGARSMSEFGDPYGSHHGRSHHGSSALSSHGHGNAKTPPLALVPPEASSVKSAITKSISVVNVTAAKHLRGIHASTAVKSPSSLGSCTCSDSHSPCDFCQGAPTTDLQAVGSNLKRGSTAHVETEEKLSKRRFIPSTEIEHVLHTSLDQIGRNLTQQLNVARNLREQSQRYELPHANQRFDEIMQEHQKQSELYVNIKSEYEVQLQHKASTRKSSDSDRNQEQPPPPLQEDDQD", "assay": "NMR titration; 15N-HSQC of 15N Ftz-F1 LBD without and with an equimolar quantity of unlabelled MetC or GceC; 20 mM sodium phosphate pH 6.8, 50 mM NaCl, 1 mM TCEP, 0.5 mM EDTA; 29 C"}, "[3]": {"target": "B2", "assay": "ITC; 1.06 mM Met^PEP titrated into 0.035 mM Ftz-F1 LBD; 25 C; 20 mM HEPES pH 6.8, 150 mM NaCl, 1 mM TCEP; duplicate, global fit to A + B = AB"}},
  "data": [
    {"binder": "B1", "values": [
      {"measurement": "binding result", "setting": "[1]", "value": "binds"}
    ]},
    {"binder": "B2", "values": [
      {"measurement": "binding result", "setting": "[2]", "value": "binds"}
    ]},
    {"binder": "B3", "values": [
      {"measurement": "Kd", "setting": "[3]", "value": 9.9, "unit": "µM"},
      {"measurement": "dH", "setting": "[3]", "value": -1.1, "unit": "kcal/mol"},
      {"measurement": "stoichiometry N", "setting": "[3]", "value": 1}
    ]}
  ]
}
